Measurements from publication PMC5388414 (Nucleic Acids Research, 2016).
Read-outs that look alike come from different tables or passages of the source. One block for each molecule: values may come before it.

Experiments:
[1] = target: Prp43 (Saccharomyces cerevisiae, UniProt P53131, F357A); assay: ITC; assay type: binding
[2] = target: T1, Prp43 (Saccharomyces cerevisiae, UniProt P53131); assay: ITC; assay type: binding
[3] = target: T1, Prp43; assay: ITC; assay type: binding; remark: listed apart in the source
[4] = target: T2, Prp43 R159A (UniProt P53131 1-767, R159A); assay: filter binding
[5] = target: T3, Prp43 (UniProt P53131 1-767); assay: filter binding
[6] = target: T4, Prp43 F357A (UniProt P53131 1-767, F357A); assay: filter binding
[7] = target: T2, Prp43 R159A; assay: filter binding; remark: listed apart in the source
[8] = target: T3, Prp43; assay: filter binding; remark: listed apart in the source
[9] = target: T4, Prp43 F357A; assay: filter binding; remark: listed apart in the source
[10] = target: T2, Prp43 R159A; assay: filter binding; remark: listed apart in the source
[11] = target: T4, Prp43 F357A; assay: filter binding; remark: listed apart in the source
[12] = target: T2, Prp43 R159A; assay: filter binding; remark: listed apart in the source

Kd [1]: > 45000 nM
Kd [2]: 1450 nM
Molecule: Nc1ncnc2c1ncn2[C@@H]1O[C@H](COP(=O)(O)OP(=O)(O)O)[C@@H](O)[C@H]1O [ADP]

Kd [3]: > 25000 nM
Molecule: Nc1ccn([C@@H]2O[C@H](COP(=O)(O)OP(=O)(O)O)[C@@H](O)[C@H]2O)c(=O)n1 [CDP]

Molecule: GACGGGCUGUUGGUGAUGGAC (ssRNA) [21-mer ssRNA]
Kd [4]: 18 ± 2 nM
Kd [5]: 42 ± 17 nM
Kd [6]: 14 ± 1 nM
Kd [7]: 20 ± 4 nM
Kd [8]: 8 ± 3 nM
Kd [9]: 6 ± 1 nM
Kd [10]: 3 ± 0.8 nM
Kd [11]: 43 ± 3 nM
Kd [12]: 8 ± 1 nM
